Article PMC9733695

Target: human FcRn (neonatal Fc receptor), coupled to a Sepharose affinity column (human) (UniProt P55899)
Experiment: FcRn affinity chromatography

Sequence of UniProt P55899 (P55899 whole entry, looked up, tested part not stated): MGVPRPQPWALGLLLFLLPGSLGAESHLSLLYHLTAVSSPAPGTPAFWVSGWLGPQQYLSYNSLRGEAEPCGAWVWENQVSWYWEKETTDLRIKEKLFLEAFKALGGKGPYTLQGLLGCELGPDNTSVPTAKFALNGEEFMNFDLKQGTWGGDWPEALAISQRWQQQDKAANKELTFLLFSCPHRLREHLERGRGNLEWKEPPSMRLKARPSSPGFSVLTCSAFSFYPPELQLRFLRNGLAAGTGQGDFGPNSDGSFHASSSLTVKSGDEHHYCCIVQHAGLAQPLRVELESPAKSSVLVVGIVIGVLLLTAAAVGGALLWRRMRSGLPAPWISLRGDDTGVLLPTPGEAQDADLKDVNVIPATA

In the case of “Antibody 4 TM (human IgG1 Fc with the TM modification)”, the retention time on the FcRn affinity column is reported as 15.9 min.

In the case of Antibody 4 WT (wild-type human IgG1 Fc), the retention time on the FcRn affinity column is reported as 16.3 min.
